According to the supplement of paper PMC7877785:
± gives the uncertainty stated by the source.

Test: self-splicing fitness, log relative to wild type (ln ratio); higher = more splicing; Tetrahymena group I intron in knt gene, E. coli kanamycin selection, DiMSum; sequences stand for … in CUCUCU…GGAGGGAAAAGUUAUCAGGCAUGCACCUGGUAGCUAGUCUUUAAACCAAUAGAUUGCAUCGGUUUAAAAGGCAAGACCGUCAAAUUGCGGGAAAGGGGUCAACAGCCGUUCAGUACCAAGUCUCAGGGGAAACUUUGAGAUGGCCUUGCAAAGGGUAUGGUAAUAAGCUGACGGACAUGGUCCUAACCACGCAGCCAAGUCCUAAGUCAACAGAUCUUCUGUUGAUAUGGAUGCAGUUCACAGACUAAAUGUCGGUCGGGGAAGAUGUAUUCUUCUCAUAAGAUAUAGUCGGACCUCUCCUUAAUGGGAGCUAGCGGAUGAAGUGAUGCAACACUGGAGCCGCUGGGAACUAAUUUGUAUGCGAAAGUAUAUUGAUUAGUUUUGGAGUACUCGUGGUCG
Outline: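 The eight P1ex-region nucleotides of an intron in the knt kanamycin-resistance gene on pET-22b(+) were all randomised and the library put into E. coli BL21(DE3). Six replicate transformations were grown overnight at 37°C or 30°C on LB agar with or without 25 μg/mL kanamycin, together with 100 μg/mL carbenicillin, 50 μM IPTG and 0.2% rhamnose. Colonies were pooled and amplicon-sequenced on an Illumina HiSeq 2500. Fitness from DiMSum is the error-weighted combination of wild-type-normalised replicate fold changes, kanamycin over none.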

Sequence | self-splicing fitness (ln) (30 °C) | self-splicing fitness (ln) (37 °C)
CGCAAGCAAUAUUACGGUUA | -2.32 ± 0.14 | -0.121 ± 0.085
CGCAAGCAAUAUUACGUAAG | -0.308 ± 0.067 | 0.113 ± 0.093
CGCAAGCAAUAUUACGUCAA | -3.1 ± 0.12 | -2.93 ± 0.14
CGCAAGCAAUAUUACGUCGA | -2.24 ± 0.16 | -1.67 ± 0.14
CGCAAGCAAUAUUACGUUCG | -1.86 ± 0.069 | -0.23 ± 0.082
CGCCAGCAAUAUUACGAGGC | -2.66 ± 0.2 | -3.07 ± 0.32
CGCCAGCAAUAUUACGAGGG | -3.28 ± 0.17 | -1.83 ± 0.18
CGCCAGCAAUAUUACGAGUC | -3.11 ± 0.28 | -1.56 ± 0.24
CGCCAGCAAUAUUACGAUCA | -1.58 ± 0.32 | -0.817 ± 0.34
CGCCAGCAAUAUUACGCCCA | -1.42 ± 0.18 | -0.853 ± 0.19
CGCCAGCAAUAUUACGCCUC | -3.25 ± 0.32 | -0.661 ± 0.29
CGCCAGCAAUAUUACGCCUU | -3.11 ± 0.27 | -2.29 ± 0.26
CGCCAGCAAUAUUACGCGUG | -2.06 ± 0.1 | -0.717 ± 0.093
CGCCAGCAAUAUUACGCUCG | -2.21 ± 0.13 | -0.347 ± 0.14
CGCCAGCAAUAUUACGGACC | -1.3 ± 0.15 | -0.361 ± 0.18
CGCCAGCAAUAUUACGGGCG |  | -2.94 ± 0.4
CGCCAGCAAUAUUACGGGGA | -3.02 ± 0.22 | -3.06 ± 0.27
CGCCAGCAAUAUUACGGUGG | -2.06 ± 0.09 | -2.56 ± 0.18
CGCCAGCAAUAUUACGUAAG | -0.207 ± 0.063 | 0.217 ± 0.074
CGCCAGCAAUAUUACGUCCC |  | -2.37 ± 0.49
CGCCAGCAAUAUUACGUCGA | -2.94 ± 0.12 | -1.24 ± 0.081
CGCCAGCAAUAUUACGUGCG | -3.99 ± 0.26 | -2.33 ± 0.22

Sequence | self-splicing fitness (ln) (30 °C) | self-splicing fitness (ln) (37 °C)
CGCGAGCAAUAUUACGAACG | -3.04 ± 0.43 | -2.08 ± 0.32
CGCGAGCAAUAUUACGAGAU | -2.7 ± 0.28 | -2.19 ± 0.26
CGCGAGCAAUAUUACGAGCA | -1.27 ± 0.13 | -0.102 ± 0.18
CGCGAGCAAUAUUACGCAGA | -1.75 ± 0.22 | -1.77 ± 0.18
CGCGAGCAAUAUUACGCAGC | -3.62 ± 0.46 | -1.99 ± 0.34
CGCGAGCAAUAUUACGCAGU | -2.99 ± 0.16 | -2.77 ± 0.17
CGCGAGCAAUAUUACGCGCA |  | -2.91 ± 0.2
CGCGAGCAAUAUUACGCGGA | -2.15 ± 0.22 | -2.71 ± 0.31
CGCGAGCAAUAUUACGGAAA | -2.72 ± 0.26 | -2.24 ± 0.3
CGCGAGCAAUAUUACGGAUC | -2.62 ± 0.23 | -2.28 ± 0.25
CGCGAGCAAUAUUACGGUAA | -2.58 ± 0.23 | -1.58 ± 0.31
CGCGAGCAAUAUUACGGUAC | -3.55 ± 0.22 | -3.97 ± 0.42
CGCGAGCAAUAUUACGGUCA | -2.23 ± 0.17 | -1.63 ± 0.15
CGCGAGCAAUAUUACGGUUA | -2.88 ± 0.26 | -0.646 ± 0.18
CGCGAGCAAUAUUACGUCGU | -3.51 ± 0.23 | -3.58 ± 0.31
CGCGAGCAAUAUUACGUGAA | -3.57 ± 0.28 | -2.56 ± 0.35
CGCGAGCAAUAUUACGUGCA | -2.08 ± 0.099 | -0.511 ± 0.095
CGCGAGCAAUAUUACGUGGU | -3.27 ± 0.15 | -2.64 ± 0.21
CGCGAGCAAUAUUACGUGUC | -3.46 ± 0.19 | -2.6 ± 0.2
CGCUAGCAAUAUUACGAAGA | -2.12 ± 0.46 | 
CGCUAGCAAUAUUACGAGCG | -4.02 ± 0.39 | -2.69 ± 0.39
